In data set [1] the target is Fc protein chain B with D356C + T366S + L368A + Y407V + F405K. The data set is described as follows: non-reducing SDS-PAGE of Protein A-purified co-transfection product; chain A:chain B vectors 1:4.
The target in data set [2] is T1, VhH-Fc fusion protein chain B with D356C + T366S + L368A + Y407V + F405K. The experiment in a line: non-reducing SDS-PAGE densitometry of Protein A-purified co-transfection product; chain A:chain B vectors 4:1.
For data set [3], the target named is T1, VhH-Fc fusion protein chain B with …. The experiment in a line: non-reducing SDS-PAGE densitometry of Protein A-purified co-transfection product; chain A:chain B vectors 1:4.
Data set [4] deals with Fc protein chain B with D356C + T366S + L368A + Y407V + F405K. The data set is described as follows: non-reducing SDS-PAGE of Protein A-purified co-transfection product; chain A:chain B vectors 4:1.
The target of data set [5] is T2, VhH-Fc fusion protein chain B with T366S + L368G + Y407A + F405K. The data set is described as follows: non-reducing SDS-PAGE densitometry of Protein A-purified co-transfection product; chain A:chain B vectors 4:1.
The target in data set [6] is T2, VhH-Fc fusion protein chain B with …. The data set is described as follows: non-reducing SDS-PAGE densitometry of Protein A-purified co-transfection product; chain A:chain B vectors 1:4.
In data set [7] the target is T3, VhH-Fc fusion protein chain B with T366S + L368A + Y407V + D399S + F405K. The data set is described as follows: non-reducing SDS-PAGE densitometry of Protein A-purified co-transfection product; chain A:chain B vectors 4:1.
In data set [8] the target is T3, VhH-Fc fusion protein chain B with …. The data set is described as follows: non-reducing SDS-PAGE densitometry of Protein A-purified co-transfection product; chain A:chain B vectors 1:4.
Data set [9] shares this target. The data set is described as follows: non-reducing SDS-PAGE densitometry of Protein A-purified co-transfection product; chain A:chain B vectors 1:1.

B1: ScFv-Fc fusion protein chain A with Y349C + T366W + K409A (protein)
chain: EVQLLESGGGVVQPGRSLRLSCIASGFTFSSYPMTWVRQAPGKGLEWVASISYDGSYKYKADSMKGRLTISRDNSKNTLYLEMNSLTAEDTAVYYCARTAFFNAYDFWGQGTLVTVSSASTKGPSVGGGGSGGGGSEIVMTQSPATLSVSPGERATLSCRASQSVRSNLAWYQQKPGQAPRLLIYAASTRATGIPARFSGSGSGTEFTLTISSLQSEDFAVYYCQQYNEWFRTSGQGTKVEIKRDKTHTCPPCPAPELLGGPSVFLFPPKPKDTLMISRTPEVTCVVVDVSHENPEVKFNWYVDGVEVHNAKTKPREEQYNSTYRVVSVLTVLHQDWLNGKEYKCKVSNKALPAPIEKTISKAKGQPREPQVCTLPPSRDELTKNQVSLWCLVKGFYPSDIAVEWESNGQPENNYKTTPPVLDSDGSFFLYSALTVDKSRWQQGNVFSCSVMHEALHNHYTQKSLSLSPGK
Take B1: the ScFv-Fc/Fc heterodimer (%) in data set [1] stood at 66%; in data set [4], 53%. For the same protein, the ScFv-Fc/VhH-Fc heterodimer (%) in [2] turned out to be 54%; in [3] it was 47%.

B2: ScFv-Fc fusion protein chain A with T366W + K409A (protein)
chain: EVQLLESGGGVVQPGRSLRLSCIASGFTFSSYPMTWVRQAPGKGLEWVASISYDGSYKYKADSMKGRLTISRDNSKNTLYLEMNSLTAEDTAVYYCARTAFFNAYDFWGQGTLVTVSSASTKGPSVGGGGSGGGGSEIVMTQSPATLSVSPGERATLSCRASQSVRSNLAWYQQKPGQAPRLLIYAASTRATGIPARFSGSGSGTEFTLTISSLQSEDFAVYYCQQYNEWFRTSGQGTKVEIKRDKTHTCPPCPAPELLGGPSVFLFPPKPKDTLMISRTPEVTCVVVDVSHENPEVKFNWYVDGVEVHNAKTKPREEQYNSTYRVVSVLTVLHQDWLNGKEYKCKVSNKALPAPIEKTISKAKGQPREPQVYTLPPSRDELTKNQVSLWCLVKGFYPSDIAVEWESNGQPENNYKTTPPVLDSDGSFFLYSALTVDKSRWQQGNVFSCSVMHEALHNHYTQKSLSLSPGK
For B2, the results for the ScFv-Fc/VhH-Fc heterodimer (%) in data set [5] and in data set [6] were 52% and 89%, respectively.

B3: ScFv-Fc fusion protein chain A with T366W + K409A + K392D (protein)
chain: EVQLLESGGGVVQPGRSLRLSCIASGFTFSSYPMTWVRQAPGKGLEWVASISYDGSYKYKADSMKGRLTISRDNSKNTLYLEMNSLTAEDTAVYYCARTAFFNAYDFWGQGTLVTVSSASTKGPSVGGGGSGGGGSEIVMTQSPATLSVSPGERATLSCRASQSVRSNLAWYQQKPGQAPRLLIYAASTRATGIPARFSGSGSGTEFTLTISSLQSEDFAVYYCQQYNEWFRTSGQGTKVEIKRDKTHTCPPCPAPELLGGPSVFLFPPKPKDTLMISRTPEVTCVVVDVSHENPEVKFNWYVDGVEVHNAKTKPREEQYNSTYRVVSVLTVLHQDWLNGKEYKCKVSNKALPAPIEKTISKAKGQPREPQVYTLPPSRDELTKNQVSLWCLVKGFYPSDIAVEWESNGQPENNYDTTPPVLDSDGSFFLYSALTVDKSRWQQGNVFSCSVMHEALHNHYTQKSLSLSPGK
On to B3, for which the ScFv-Fc/VhH-Fc heterodimer (%) in data set [7] stood at 61%; in [8] it was 73%; in [9] it was 80%.

For the origin of these results see patent US20180362668.
